This passage reports screen value results from paper PMC10200994.

The chains are these.
B1: STAT1 (unphosphorylated, wild-type), fluorophore fusion [not stated] / STAT1 (unphosphorylated, wild-type), fluorophore fusion [not stated] (parent)
chain 1: MSQWYELQQLDSKFLEQVHQLYDDSFPMEIRQYLAQWLEKQDWEHAANDVSFATIRFHDLLSQLDDQYSRFSLENNFLLQHNIRKSKRNLQDNFQEDPIQMSMIIYSCLKEERKILENAQRFNQAQSGNIQSTVMLDKQKELDSKVRNVKDKVMCIEHEIKSLEDLQDEYDFKCKTLQNREHETNGVAKSDQKQEQLLLKKMYLMLDNKRKEVVHKIIELLNVTELTQNALINDELVEWKRRQQSACIGGPPNACLDQLQNWFTIVAESLQQVRQQLKKLEELEQKYTYEHDPITKNKQVLWDRTFSLFQQLIQSSFVVERQPCMPTHPQRPLVLKTGVQFTVKLRLLVKLQELNYNLKVKVLFDKDVNERNTVKGFRKFNILGTHTKVMNMEESTNGSLAAEFRHLQLKEQKNAGTRTNEGPLIVTEELHSLSFETQLCQPGLVIDLETTSLPVVVISNVSQLPSGWASILWYNMLVAEPRNLSFFLTPPCARWAQLSEVLSWQFSSVTKRGLNVDQLNMLGEKLLGPNASPDGLIPWTRFCKENINDKNFPFWLWIESILELIKKHLLPLWNDGCIMGFISKERERALLKDQQPGTFLLRFSESSREGAITFTWVERSQNGGEPDFHAVEPYTKKELSAVTFPDIIRNYKVMAAENIPENPLKYLYPNIDKDHAFGKYYSRPKEAPEPMELDGPKGTGYIKTELISVSEVHPSRLQTTDNLLPMSPEEFDEVSRIVGSVEFDSMMNTV
chain 2: B1 chain 1
B2: STAT5B (unphosphorylated, wild-type), fluorophore fusion [not stated] / STAT5B (unphosphorylated, wild-type), fluorophore fusion [not stated] (parent)
chain 1: MAVWIQAQQLQGEALHQMQALYGQHFPIEVRHYLSQWIESQAWDSVDLDNPQENIKATQLLEGLVQELQKKAEHQVGEDGFLLKIKLGHYATQLQNTYDRCPMELVRCIRHILYNEQRLVREANNGSSPAGSLADAMSQKHLQINQTFEELRLVTQDTENELKKLQQTQEYFIIQYQESLRIQAQFGPLAQLSPQERLSRETALQQKQVSLEAWLQREAQTLQQYRVELAEKHQKTLQLLRKQQTIILDDELIQWKRRQQLAGNGGPPEGSLDVLQSWCEKLAEIIWQNRQQIRRAEHLCQQLPIPGPVEEMLAEVNATITDIISALVTSTFIIEKQPPQVLKTQTKFAATVRLLVGGKLNVHMNPPQVKATIISEQQAKSLLKNENTRNDYSGEILNNCCVMEYHQATGTLSAHFRNMSLKRIKRSDRRGAESVTEEKFTILFESQFSVGGNELVFQVKTLSLPVVVIVHGSQDNNATATVLWDNAFAEPGRVPFAVPDKVLWPQLCEALNMKFKAEVQSNRGLTKENLVFLAQKLFNNSSSHLEDYSGLSVSWSQFNRENLPGRNYTFWQWFDGVMEVLKKHLKPHWNDGAILGFVNKQQAHDLLINKPDGTFLLRFSDSEIGGITIAWKFDSQERMFWNLMPFTTRDFSIRSLADRLGDLNYLIYVFPDRPKDEVYSKYYTPVPCESATAKAVDGYVKPQIKQVVPEFVNASADAGGGSATYMDQAPSPAVCPQAHYNMYPQNPDSVLDTDGDFDLEDTMDVARRVEELLGRPMDSQWIPHAQS
chain 2: B2 chain 1
B3: STAT4 (unphosphorylated, wild-type), fluorophore fusion [not stated] / STAT4 (unphosphorylated, wild-type), fluorophore fusion [not stated] (parent)
chain 1: MSQWNQVQQLEIKFLEQVDQFYDDNFPMEIRHLLAQWIENQDWEAASNNETMATILLQNLLIQLDEQLGRVSKEKNLLLIHNLKRIRKVLQGKFHGNPMHVAVVISNCLREERRILAAANMPVQGPLEKSLQSSSVSERQRNVEHKVAAIKNSVQMTEQDTKYLEDLQDEFDYRYKTIQTMDQSDKNSAMVNQEVLTLQEMLNSLDFKRKEALSKMTQIIHETDLLMNTMLIEELQDWKRRQQIACIGGPLHNGLDQLQNCFTLLAESLFQLRRQLEKLEEQSTKMTYEGDPIPMQRTHMLERVTFLIYNLFKNSFVVERQPCMPTHPQRPLVLKTLIQFTVKLRLLIKLPELNYQVKVKASIDKNVSTLSNRRFVLCGTNVKAMSIEESSNGSLSVEFRHLQPKEMKSSAGGKGNEGCHMVTEELHSITFETQICLYGLTIDLETSSLPVVMISNVSQLPNAWASIIWYNVSTNDSQNLVFFNNPPPATLSQLLEVMSWQFSSYVGRGLNSDQLHMLAEKLTVQSSYSDGHLTWAKFCKEHLPGKSFTFWTWLEAILDLIKKHILPLWIDGYVMGFVSKEKERLLLKDKMPGTFLLRFSESHLGGITFTWVDHSESGEVRFHSVEPYNKGRLSALPFADILRDYKVIMAENIPENPLKYLYPDIPKDKAFGKHYSSQPCEVSRPTERGDKGYVPSVFIPISTIRSDSTEPHSPSDLLPMSPSVYAVLRENLSPTTIETAMKSPYSAE
chain 2: B3 chain 1
B4: STAT5A (unphosphorylated, wild-type), fluorophore fusion [not stated] / STAT5A (unphosphorylated, wild-type), fluorophore fusion [not stated] (parent)
chain 1: MAGWIQAQQLQGDALRQMQVLYGQHFPIEVRHYLAQWIESQPWDAIDLDNPQDRAQATQLLEGLVQELQKKAEHQVGEDGFLLKIKLGHYATQLQKTYDRCPLELVRCIRHILYNEQRLVREANNCSSPAGILVDAMSQKHLQINQTFEELRLVTQDTENELKKLQQTQEYFIIQYQESLRIQAQFAQLAQLSPQERLSRETALQQKQVSLEAWLQREAQTLQQYRVELAEKHQKTLQLLRKQQTIILDDELIQWKRRQQLAGNGGPPEGSLDVLQSWCEKLAEIIWQNRQQIRRAEHLCQQLPIPGPVEEMLAEVNATITDIISALVTSTFIIEKQPPQVLKTQTKFAATVRLLVGGKLNVHMNPPQVKATIISEQQAKSLLKNENTRNECSGEILNNCCVMEYHQATGTLSAHFRNMSLKRIKRADRRGAESVTEEKFTVLFESQFSVGSNELVFQVKTLSLPVVVIVHGSQDHNATATVLWDNAFAEPGRVPFAVPDKVLWPQLCEALNMKFKAEVQSNRGLTKENLVFLAQKLFNNSSSHLEDYSGLSVSWSQFNRENLPGWNYTFWQWFDGVMEVLKKHHKPHWNDGAILGFVNKQQAHDLLINKPDGTFLLRFSDSEIGGITIAWKFDSPERNLWNLKPFTTRDFSIRSLADRLGDLSYLIYVFPDRPKDEVFSKYYTPVLAKAVDGYVKPQIKQVVPEFVNASADAGGSSATYMDQAPSPAVCPQAPYNMYPQNPDHVLDQDGEFDLDETMDVARHVEELLRRPMDSLDSRLSPPAGLFTSARGSLS
chain 2: B4 chain 1

The variants in one assay derive from B1. As to the kind of experiment: co-localization assay (quantitative fluorescence microscopy in HeLa cells). As to conditions: with STAT1 (unphosphorylated, wild-type), bait S1-NLS, test S1-F77A, 20 cells (parent 12 cells), parent: 0.98.
With chain 1 F77A, the screen value stood at 0.64.

The variants in a further assay derive from B2. The description is as above. As to conditions: with STAT5B (unphosphorylated, wild-type), bait S5B-NES, test S5B-L82A, 32 cells (parent 10 cells), parent: 0.97.
With chain 1 L82A, the screen value came to 0.63.

Variants of B3 are the subject of another assay. The description is as above. To be noted: with STAT4 (unphosphorylated, wild-type), bait S4-NES, test S4-L78S, 19 cells (parent 14 cells), parent: 0.95.
For chain 1 L78S, the screen value amounted to 0.68.

The variants in a further assay derive from B4. The assay is described as above. To be noted: with STAT5A (unphosphorylated, wild-type), bait S5A-NES, test S5A-L82A, 19 cells (parent 13 cells), parent: 0.97.
As for chain 1 L82A, the screen value came to 0.54.
